Measured values reported in article PMC5910394 (2018).
Positions of bridges follow the written chain, without caps; N, C: chain ends. No end group written: not given here.

Tests used:
[1] = biological target: anti-HER2 memAb (trastuzumab-based, meditope-enabled anti-HER2 antibody); assay: SPR
Ile83Glu anti-HER2 memAb = assay: SPR
Ile83Glu anti-HER2 memAb, sequence (VH, as listed by the source, chain 1 of 2): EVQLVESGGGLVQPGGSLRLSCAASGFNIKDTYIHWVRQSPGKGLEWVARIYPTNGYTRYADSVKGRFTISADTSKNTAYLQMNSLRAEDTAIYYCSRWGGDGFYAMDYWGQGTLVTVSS
Ile83Glu anti-HER2 memAb, sequence (VL, as listed by the source, chain 2 of 2): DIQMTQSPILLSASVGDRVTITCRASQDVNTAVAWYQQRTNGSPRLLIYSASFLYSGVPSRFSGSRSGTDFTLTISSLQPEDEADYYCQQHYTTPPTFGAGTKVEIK

anti-HER2 memAb (trastuzumab-based, meditope-enabled anti-HER2 antibody), sequence (VH, as listed by the source, chain 1 of 2): as the sequence (VH, as listed by the source, chain 1 of 2) above
anti-HER2 memAb (trastuzumab-based, meditope-enabled anti-HER2 antibody), sequence (VL, as listed by the source, chain 2 of 2): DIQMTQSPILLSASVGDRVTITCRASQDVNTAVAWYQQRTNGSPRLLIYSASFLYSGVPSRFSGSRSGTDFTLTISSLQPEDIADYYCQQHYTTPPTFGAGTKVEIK

Row | Binder | Kd [1] [nM] | Kd (Ile83Glu anti-HER2 memAb) [nM]
1 | Ac-CQFDASTRRLRCGGSK (disulfide 1-12 (inferred); not fully specified (residue 5); printed as (Ac)CQFDA(Ph)2STRRLRCGGSK) [5-diphenylalanine long meditope ((Ac)CQFDA(Ph)2STRRLRCGGSK)] | 39 | 
2 | CQFDLSTRRLKC (disulfide 1-12 (inferred)) [original meditope (CQFDLSTRRLKC)] |  | 20
